Article PMC5669812 (Protein expression and purification, 2017)
Where two headings read alike, the source gives them in different places.

How the values were obtained:
MTSL-labeled GroEL^A138C [1] = target: T1, MTSL-labeled GroEL^A138C (E. coli, UniProt P0A6F5 2-548, C458A | C519A, MTSL nitroxide spin label on cysteine 138); test: negative-stain electron microscopy
MTSL-labeled GroEL^A138C [2] = target: T1, MTSL-labeled GroEL^A138C; test: negative-stain electron microscopy; remark: listed apart in the source
native gel or EMSA = target: the molecule itself; test: native gel or EMSA

| stoichiometry N (MTSL-labeled GroEL^A138C [1]) | stoichiometry N (MTSL-labeled GroEL^A138C [2]) | Binder | binding result (native gel or EMSA) |
| --- | --- | --- | --- |
| 1 GroES molecules per GroEL-14mer | 2 GroES molecules per GroEL-14mer | GroES (natural protein) MNIRPLHDRVIVKRKEVETKSAGGIVLTGSAAAKSTRGEVLAVGNGRILENGEVKPLDVKVGDIVIFNDGYGVKSEKIDNEEVLIMSESDILAIVEA |  |
|  |  | MTS-labeled GroEL^R268C (natural protein, E. coli, diamagnetic MTS label on cysteine 268) AAKDVKFGNDARVKMLRGVNVLADAVKVTLGPKGRNVVLDKSFGAPTITKDGVSVAREIELEDKFENMGAQMVKEVASKANDAAGDGTTTATVLAQAIITEGLKAVAAGMNPMDLKRGIDKAVTAAVEELKALSVPASDSKAIAQVGTISANSDETVGKLIAEAMDKVGKEGVITVEDGTGLQDELDVVEGMQFDRGYLSPYFINKPETGAVELESPFILLADKKISNIREMLPVLEAVAKAGKPLLIIAEDVEGEALATLVVNTMCGIVKVAAVKAPGFGDRRKAMLQDIATLTGGTVISEEIGMELEKATLEDLGQAKRVVINKDTTTIIDGVGEEAAIQGRVAQIRQQIEEATSDYDREKLQERVAKLAGGVAVIKVGAATEVEMKEKKARVEDALHATRAAVEEGVVAGGGVALIRVASKLADLRGQNEDQNVGIKVALRAMEAPLRQIVLNAGEEPSVVANTVKGGDGNYGYNAATEEYGNMIDMGILDPTKVTRSALQYAASVAGLMITTEAMVTDLPKNDAADLGAAGGMGGMGGMGGMM | binds |
